assay: soluble on expression in E. coli; label from the status in PepcDB or PDB records

Row | Sequence | soluble on expression in E. coli
1 | MGHHHHHHSHKDDTDPGQLKGLSAHTHVELPYYSKFILIAAYLASYNPARTDKRFFLKHHGKIKKTNFLKKHEKTSNHLLGPKPFPLDRLLAILYSIVDSRVAPTANIFSQITSLVTLQLLTLVGHDDQLDGPKYKCTVSLDFIRAIARTVNFDIIKYLYDFL | not soluble
2 | MGSDKIHHHHHHMKATKRIAEATQESLHRIFTIAEAPDSTLGRLEQEMSQNLVGFLNNHIVASKNALTDIEQDFINARIPEQPEFVSDHMHHLLDKLVAQSVHTSSPSFIGHMTSALPSFILPLSKLMVGLNQNLVKVETSKAFTPLERQVLGMMHNLVYQHDDVFYKNWMHSAEHSLGAFCSGGTVANITALWVARNKLLKADGDFRGVAREGLHRAMRHYGYQDLAILVSDRGHYSLKKSADILGIGQENVIAIPTDEHNKIDCQKLADKCQQLAAQNIKVLAIVGVAGTTETGNIDPLDKIAEIAQQNQCHFHVDAAWGGATLLSNKYRPLLKGIEQADSVTIDAHKQMYVPMGAGLVIFKDPASVSAIEHHAEYILRKGSKDLGSHTLEGSRPGMAMLVYSSLHIISRPGYEMLINQAIEKAEYFADIIHQHDDFELITRPELCLLTYRYAPKSVQALLARNDDEANKSVNMLLGKLTKFIQKRQREDGRSFVSRTRIEVSRYGGEKVIVFRVVLANPLTTKEILQGILQEQCQLAQESEQFLPELLQAAK | not soluble
3 | MGSDKIHHHHHHTEGWFMPFDNWLYQLQNADPVEISSSGFEIAVIDYSKDGSESGEYSPEEIKIMVDAGVVPVAYVNIGQAEDYRFYWKESWYTNTPEWLGEEDPAWPGNYFVKYWYNEWKEIVFSYLDRVIDQGFKGIYLDRIDSFEYWAQEGVISRRSAARKMINFVLEIAEYVRERKPDMLIIPQNGENILDFDDGQLASTVSGWAVENLFYLKTIPLEENETKSRLEYLIRLNRKGKFILSVDYVDDGSDSFENISRILDYYEKAKRNGCIPYAARSDLELDEMNVIEGIQPPEALKDYESRTYR | soluble
4 | VSRAESNRTYSGQPVAERRVARRARFLDSALSVFAEKTYAHSSISDICAHAGLSRRQFYEEFGSREDILLALYDTIQDEARDAVLAANDRAPSRDPRTVAGTVMTAYIESVGTDERRARIIFVEVVGAGPRVEQYRLERRTQWAQLFETVTRTIDGGIVDPPERFEMVSIAFIGAVNDLAHHWSTASPRPSPSVLVDVLSTMLIALVTDQT | not soluble
5 | VNAYDVLKRHHTVLKGLGRKVGEAPVNSEERHVLFDEMLIELDIHFRIEDDLYYPALSAAGKPITGTHAEHRQVVDQLATLLRTPQRAPGYEEEWNVFRTVLEAHADVEERDMIPAPTPVHITDAELEELGDKMAARIEQLRGSPLYTLRTKGKADLLKAI | not soluble
6 | MGSDKIHHHHHHMIKALYTSITGMNATQNALSVTSNNIANAQTVGYKKQKAMFDDLLYNNSIGAKGDDRYAGTNPKSIGNGVKMSGTVTDYTDGTITLTGGKTQAAMEGNGFFVVGDSKAGNMEFTRKGTFTISSDYYITNTEGQYVFAYPADPSTGNVDLSGIPGPLQVPMGSAIGGIRTSKGVVGGNIPADAKQITQELPVYDNAGNTWTMRVEFKQDGEHNYKYKVYMRNESKKETAFNEVNGAGGEVKFDAVGKPDPVNPEANIPFNGGTVKIDFSKLTNHPTEKTLAVTDVDGRAAATVKDCFIADGGYVMVKYSDGSMKAAGQLAVAMFPNEGGLMKTGNGNYTATNTTGILAMGVSGQNGAGKVRGSAQEGANVDLSVEFVDLMLYQRGFQGNAKVIKISDEVLNEVVNLIR | not soluble
7 | MKKQLCMIALVGATAFGTTGTSWSLDGPPPPEPPPMGKGQEHFLERMASVLKLTDAQQAQIEALISTDAEQNAPLHRQLAENERALREATTAASLDEATVRALAATKGNLMTEMIVSRAKLRNAINAILTAEQRELADRLDPLKYGPPRPRPDRPGMELEHHHHHH | soluble
8 | MGHHHHHHSHMPSCVVNPMEHTHAATAALPAAGPVNLPTGISRVPTGYPSDLKPVTWNQHQLAHLQQMCSEASGTPAPGLTGKHAAGRELAGPGFVGKAPAYPQELCLAQSFHLKPPLEKPTPSPPVNGMAAPLAYPNGHYFQPLWNNILPTPNSDSSGSQDLAMPFHGGQPTGAPLDCAAAPGAHYRAGTGGGPVASQNSLMQTVDYLSGDFQQACFREQSLAMLSKAHRAPGNRAPDPTESRSLHIQHPGYR | not soluble
9 | MRVLIRSSASGSEYWDTEEKRNVFVPKGQEPDFEVTENPESMLSKEADLHVGGLPITVGNVTIDTDGIKGERLLTTASAADDEEQDELVPSDDESVVLEEMNVKELREYAKRKGIEIPSAVRAKGEILNIIKESE | not soluble
10 | MGSDKIHHHHHHTGIWQWSVPVHNFSTHPKNPESRAYLWIPGQCEQVKAILVAQHNMEEISILEDEAFRQRMAELDVAQIWVCPSFNHGFDFTDGAWETLDGLLADLAEESGYKELSTAPLIAIGHSAAASWPYYLAAYKPERTLACISVSGQWPYHRDRWLCPDIWGERNINKIPCLETMGEYESAHTWSNEGLKERKEHPLLPLSMLACPAEGHFAYTPEKAQYIALYIKKAMHYGHVDPTKEGWLMERWKKNEKPSCIPAPVNQFKGDPAQAFWFFDREMIEATLAYQSRYYDMKPQLVSVSQNGKTVSQQNTHLQVHPAFIPQEDGITFQLTPVFLDTVPGESPRLSNWTDLPVGASIGHAGKAPVLQMITGPVVLVDSVTFRIQWNRGTLWTDKKSDIVFSITHPGDEEYKPAVQQAQMIIPVKNTEGQQQYIKFATLPDIKRGTKYVSLSAVSSCGLPVDFYVESGPAYVDGNRLILTAIPPKTTYPVKVTVIAWQYGKNSDPKIKTAEPVKQTFYIR | not soluble
11 | MGSDKIHHHHHHMRNVKIDEVDRLDRDVVALGNDYAQGFILPPHQHRRAQLLYGATGLMYVTTQDGEWVVPPQHAVWIPPETVHAVRFAGVTTRSLYIEPDCVAAFIKHRRCEVISVSPLLRQLLLEAVDLPPLYDSPRDRALIQLMLLELAAMPVREFDIPLPQHPALLALCQAFLLNPSIHDPAARWARALFMSPSTFRRHFLKQLGLSFSAWRQRACVVSALAWLIAGKPVNEVALSLGYDNASSFATMFRRVTGQPPSFYHPA | not soluble
12 | MKLIKTIDAVGQVLCHDITQIIPGEFKGRKFKKGHIVKEEDIPVLLSLGKDNLYVWEKSEGMVHENEGALFLKELTAGENLDFSEIKEGKIDFIAACDGLLKIDVDALFDLNCVGEIMMATLHNNFIVNKGLKVAGTRVIPLVIDEKKLEDAKKVVGNRKIVNVVPFKPKKVGIVTTGNEVFYSRIVDKFGPVIEEKVKGFGCEVIGQTICPDDKEIIKSAIKEFISQGAELICCTGGMSVDPDDVTPTAIKETGADLVTYGSPILPGAMFLLAYYGEVPIMGIPGCAMYHKTTVFDIVLSRVLIDEKLDKYDIARYGHGGLCMNCDVCTYPACNFAKI | soluble
13 | MDYKVSRSGEIVEGEVEDSEKIDLPPGFRFHPTDEELITHYLRPKVVNSFFSAIAIGEVDLNKVEPWDLPWKAKLGEKEWYFFCVRDRKYPTGLRTNRATKAGYWKATGKDKEIFKGKSLVGMKKTLVFYKGRAPKGVKTNWVMHEYRLEGKFAIDNLSKTAKNECVISRVFHTRTDGTKEHMSVGLPPLMDSSPYLKSRGQDSLAGTTLGGLLSHVTYFSDQTTDDKSLVADFKTTMFGSGSTNFLPNIGSLLDFDPLFLQNNSSVLKMLLDNEETQFKKNLHNSGSSESELTASSWQGHNSYGSTGPVNLDCVWKF | soluble
14 | MFEARLTDVRANKLAQAWRLAYEQADGKRRRAMLGGLAQVGAGMQGDGAQGTRLFKRFNALPDGLRFLVALRADMLRWRKQVAGLQALDKELEALLSAWFDVGLLELRPLTWDSPASLLEKLILYEAVHEIRSWDDLRHRVAGDRRCYAYFHPQMPDVPLIFVEVAFSAQMADNVQALLDTSAPPQDLDKARWAIFYSISNTQPGLRGISFGNFLLKRVIDRLLQELPKLKFFATLSPIPGFADWLSRLDAQEVEQAVRDKARTRSGAPDGARWVARLARAATGKPSEVVQRAGLRLAARYLQAMRAGQPLDPVARFHLGNGARIERLNWAADTSAKGLAQSCGMMVNYLYELGDLDGNLARLNEGKPQVSRGIARLGAAALEHHHHHH | soluble
15 | MGSDKIHHHHHHMIKKIYFIMVVIGSILLSSCDSYLDIQPVGQVIPTTLTEYRALLTTAYGLKLIDKSVTEFRTDIAMVTDNSNSQNFYSEIEKWNDMSPKDGTREFGWAVYYSVIYYANAIIANKDNIKEGSQEDIDQLVGEAYLLRGYMHFILANLYGQPYTKEGAPETKSIPIKWDLDLEVVLPRNTVKEVYTAILSDIESARGLMHQKEWEAVYAYRFSTLSVDAMESRVRLYMGNWKEAYDAAERILVQKSTLEDLNDPEAKLPNNYTSAEMITAYEFFNDDVTSASILIPAFMEKYDANKDLRRNKYYSLSGDKYISKKSGKAEHNCTFRTGEIYLNAAEAAAQMNKLPEARTRLLQLMEKRYTPEGYAEKKKAVDAMNQADLIKEILEERALELAFEGHRWFDLRRTTRPRIEKVLNGQAYLLEQDDSRYTLRIPQSAIAANPGLLN | not soluble
16 | MSLADLFASPDDAAAGGAPDTAPLADRLRPRTLGDVVGQEHLTGPDGAIGRMVAAGRLSSIIFWGPPGTGKTTISRLLAHAVGMRFEPISAVFSGVADLKKVFAAAKDHARHGEKTLLFVDEIHRFNRAQQDSFLPFVENGTVTLVGATTENPSFELNAALLSRAQVLILRRLDAAALEQLLDRAEGLMERPLPLDPAAREALLASADGDGRFLLNQVETLYAIDIPEPLDPAGLSALLHRRVAVYDKDREGHYNLISALHKSLRGSDPQAALYYLARMLTAGEEPLYVLRRLVRFATEDIGLADPQAVVQCLAAKDAYDFLGSPEGELAIVQACLYCATAPKSNAAYMAMKASFRSARETGSLMPPMNIVNAPTKLMKQVGYGKNYQYDHDAAEGFSGANYWPEEMEAQTFYAPTDRGFEARVAERMAYWDRLRAERGEGHHHHHH | soluble
17 | MLEQIRNTHPLVYQNFSALPDGEKHLRSILAIDRYWEKLDLPVPDVILAGSRLPVDACVEEACDILYAGGTLGLLHAAVMSKKYGRKVLVIDRAEPGRTTRDWNISRGELLRLADTGVFTSEELDSTIVRMYKTGWVEFHAPAERRKRLYMDEVLDCAVDADRLLGMACKKVLAGGGSKVLGHTSFVCCYQFPDHLVVQVEELSGKPRYFRTQVLVDAMGIVSPVAMQLNRGRPQTHVCPTVGTIASGFENADFEVGEILASTEDAEVSGKRGRQLIWEGFPAKGDEYITYLFFYDKVDSPNDKSLLGLFEAYFRKLPEYKKPGPNFTIHRPVFGIIPAYFHDGAGCTRVVSGERIALLGDAASLASPLTFCGFGSVVRNLDRMTSGLDRAMREGRLGAAELANISAYEPNVASMATLMKYMCYDPETDEPGFVNEMMNEVMIVLDELPQRYRQAMFRDEMKVEELVTVMLKVAWRYPKILKATWNKLGVGGSVGFVKNLAGWAISQNEKRGLEHHHHHH | not soluble
18 | MQHPTTKYVKLSFALIFLFNIASASIFSDDVTEATSSPDTTTTAVAIRAKRQCGGMGGCCGGMSGCGCGSMGMCGQTCCPSAPPPCSCGTPGCMQCVQQTVLVPVTTTTCCKCCQPVCTNACTNGGGCSCGCTRGGCSRKRRSLLAIASEEMSKRGDVMV | not soluble
19 | MGSDKIHHHHHHMGAKKNFVLDTNVILHDYKCIENFQENDIYLPIVVLEELDKFKKGSEQINYNAREFVRELDLLTSNDLFLKGASLGPGKGTLYIVTGDKYQEKIAHSFPDKTPDHRILSCALTIAEKNPKIKTTLVSKDVNLRMKARSLGIPVEDYITDKVVNVDIFERAQETYENIDPDLIDKIYSSPEGVDADSLDIKSKLDPNECFILKSVRNSVLARYNPFTDKIKKVDKGTNFGIQPRNAEQSFAFEVLNDPNIKLVGLTGKAGTGKTLLALASALKQAGTYKQILLARPIVALANKDLGFLPGDEKQKVAPYMQPLFDNLNVIKTQFAPGNPDVRKIDDMQKNNQLVIEALAFIRGRSLSETYCIIDEAQNLTPHEIKTIITRAGEGTKMVFTGDIQQIDSPYLDAQSNGLAYMIDKMKGQDLFAHINLIKGERSELSELASDLL | not soluble
